The source of these data is patent US9724426B2, “Agents, uses and methods” (AFFINICON APS, priority 2009, dated 2017).

Experiment [1] has as its target T1, CD163 receptor on surface of human macrophages (Homo sapiens, UniProt Q86VB7).
T1 construct: endogenous in cells; host or cells: human peripheral blood monocytes, monocyte-derived macrophages, blood dendritic cells
In words: Binding and uptake of fluorescently labeled CD163 antibodies in monocyte-derived macrophages. Format: cell-based. As to conditions: 0 min; macrophages stimulated with 200 nM dexamethasone. On the procedure:
Monocytes were isolated from PBMC by negative selection using magnetic beads from Dynal (Dynabeads® MyPure™ Monocyte Kit 2; Invitrogen A/S, Taastrup, Denmark) according to instructions provided by the manufacturer. Monocyte preparations were more than 95% (CD14^+) pure determined by flow cytometry. The isolated cells were washed twice with phosphate-buffered saline. Monocyte-derived macrophages (MDMs) were prepared by cell culture of monocytes (approximately 1×10^7 cells) for 4 days in 5% CO2 and 37° C. in RPMI 1640 media (RPMI 1640+25 mM HEPES+I-glutamine) (Invitrogen Corporation, Carlsbad, Calif., USA) with 20% FCS containing 100 ng/ml of M-CSF. MDMs were then detached from the flask by incubation with cell dissociation buffer (Invitrogen A/S, Taastrup, Denmark) for 30 minutes at 40 °C, then flushed, and scraped. […]
MDMs or CHO cells were washed with 4° C. cold D-PBS, pH 7.4, containing 1% BSA in Lab-Tek™ Chamber Slides (Thermo Fisher Scientific, Roskilde, Denmark). […] Fluorescence was visualized using a Zeiss Axiovert 200M microscope (Carl Zeiss GmbH, Jena, Germany) with an ×100 oil-immersion objective. […] Alternatively, immunostained cells were analyzed by confocal immunofluorescence microscopy using a Zeiss LSM-510 confocal microscope (Carl Zeiss GmbH, Jena, Germany). […]

Experiment [2] addresses T2, CD163 on peripheral blood dendritic cells (Homo sapiens, UniProt Q86VB7).
T2 construct: endogenous in cells; host or cells: human peripheral blood monocytes, monocyte-derived macrophages, blood dendritic cells
In words: Flow cytometry of CD163 expression on peripheral blood dendritic cells. It counts as cell-based. Particulars: CD14-ILT3+HLA-DR+ dendritic cells. The text has this: Freshly drawn peripheral whole blood samples (approx. 3×10^6 cells) were stained with isotype-matched control antibody (Mouse IgG1 PE, k isotype control, MOPC-21, BD Pharmingen™, San Diego, Calif., USA) or a relevant antibody (anti-CD3 FITC, UCHT1, BD Biosciences, San Diego, Calif., USA; anti-CD11c FITC, KB90, DAKO A/S, Glostrup, Denmark; anti-CD14 FITC, RMO52, IOTests®, Beckman and Coulter, Marseille, France; anti-CD16 FITC, 3G8, BD Biosciences, San Diego, Calif., USA; anti-CD19 FITC, SJ25C1, BD Biosciences, San Diego, Calif., USA; anti-CD20 FITC, CAT 13.6E12, Diatec.com A/S, Oslo, Norway; anti-CD56 FITC, NCAM16.2, BD Biosciences, San Diego, Calif., USA; anti-CD91 FITC, A2MR-a2, BD Biosciences, San Diego, Calif.; anti-HLA-DR FITC, EDU-1, Diatec.com A/S, Oslo, Norway; anti-CD163 PE, MAC2-158, IQ Products, Groningen, The Netherlands; anti-CD163 PE, GHI/61, BD Biosciences, CA, USA; anti-ILT3/CD85k PE-Cy5, ZM3.8, IOTests®, Beckman and Coulter, Marseille, France; anti-HLA-DR PerCP, L234, BD Biosciences, San Diego, Calif.; anti-CD4 APC, EDU-2, Diatec.com A/S, Oslo, Norway; anti-CD14 APC, 18D11, Diatec.com A/S, Oslo, Norway) for 15 minutes at room temperature in the dark. […] For CD163 density quantitation, flow cytometric estimation of antibodies bound/cell (ABCs) was performed using Quantibrite PE beads (Becton Dickinson, San Jose, Calif., USA) as recommended by the manufacturer. […]

T1 sequence (Q86VB7 42-1156): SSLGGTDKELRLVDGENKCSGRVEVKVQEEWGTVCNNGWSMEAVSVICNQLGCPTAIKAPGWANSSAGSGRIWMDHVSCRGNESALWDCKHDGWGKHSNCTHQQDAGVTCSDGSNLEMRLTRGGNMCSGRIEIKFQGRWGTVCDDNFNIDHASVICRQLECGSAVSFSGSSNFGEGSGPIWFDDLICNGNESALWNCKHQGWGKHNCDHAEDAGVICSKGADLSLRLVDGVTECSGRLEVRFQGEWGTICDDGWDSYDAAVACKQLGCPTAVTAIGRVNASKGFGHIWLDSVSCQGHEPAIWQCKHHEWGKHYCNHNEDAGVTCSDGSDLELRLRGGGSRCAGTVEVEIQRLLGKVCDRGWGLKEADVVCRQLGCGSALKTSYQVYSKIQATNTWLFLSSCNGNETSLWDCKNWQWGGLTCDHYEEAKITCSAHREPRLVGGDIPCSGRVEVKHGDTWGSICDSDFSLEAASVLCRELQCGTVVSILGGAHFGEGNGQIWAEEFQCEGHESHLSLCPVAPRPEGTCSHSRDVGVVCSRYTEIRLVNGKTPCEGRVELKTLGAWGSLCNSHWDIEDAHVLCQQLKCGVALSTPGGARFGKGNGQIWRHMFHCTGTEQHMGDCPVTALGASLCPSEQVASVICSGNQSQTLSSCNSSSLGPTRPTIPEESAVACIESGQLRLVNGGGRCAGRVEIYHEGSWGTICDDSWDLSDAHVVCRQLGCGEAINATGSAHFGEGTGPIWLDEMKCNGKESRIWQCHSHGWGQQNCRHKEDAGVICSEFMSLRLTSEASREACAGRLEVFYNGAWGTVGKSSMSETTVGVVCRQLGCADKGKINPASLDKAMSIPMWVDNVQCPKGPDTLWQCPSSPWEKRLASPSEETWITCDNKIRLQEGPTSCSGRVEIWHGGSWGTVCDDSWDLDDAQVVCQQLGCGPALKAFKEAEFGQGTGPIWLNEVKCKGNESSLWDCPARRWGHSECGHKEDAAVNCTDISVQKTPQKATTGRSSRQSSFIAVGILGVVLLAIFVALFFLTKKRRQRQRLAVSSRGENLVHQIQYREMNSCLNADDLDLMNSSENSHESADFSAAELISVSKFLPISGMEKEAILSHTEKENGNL
T2 sequence (Q86VB7 42-1156): as above

B1: Mac2-158: murine anti-human CD163 mAb binding SRCR domain 1; VH SEQ ID NO:20, VL SEQ ID NO:21; IQ Products (antibody, V domains shown)
VH: DVQLQESGPGLVKPSQSLSLTCTVTGYSITSDYAWNWIRQFPGNKLEWMGYITYSGITNYNPSLKSQISITRDTSKNQFFLQLNSVTTEDTATYYCVSGTYYFDYWGQGTTLTVSS
VL: SVVMTQTPKSLLISIGDRVTITCKASQSVSSDVAWFQQKPGQSPKPLIYYASNRYTGVPDRFTGSGYGTDFTFTISSVQAEDLAVYFCGQDYTSPRTFGGGTKLEIKRA
modifications: Mac2-158 VH sequence; Mac2-158 VL sequence
notes: IQ Products
B1: in experiment [1], the “cell surface staining (immunofluorescence)” value is reported as “pronounced cell surface staining”. In experiment [2], the “fraction of peripheral blood dendritic cells recognized as CD163 expressing” value stood at 32.3%.
